{
  "source": "paper PMC10471779",
  "about": "(2023)",
  "binders": {"B1": {"name": "D11 anti-Gal-3 monoclonal antibody (hIgG1 format, LALA) (antibody, V domains shown)", "VH": "EVQLVESGGSLVKPGGSLRLSCAASGFTFSNYNMNWVRQAPGKGLEWISSIYGSSRYIYYADFVKGRFTISRDNAKNSLYLQMNSLRAEDTAVYYCVRSSYGGMDVWGRGTLVTVSS", "VL": "QSVLTQPASVSGSPGQSITISCAGTSSDVGGSYNVAWYQQHPGKAPKLMIYYDSYRPSGVSNRFSGSKSGNTASLTISGLQAEDEADYYCSSYTGYSTRVFGGGTKLEIK"}, "B2": {"name": "E07 anti-Gal-3 monoclonal antibody (hIgG1 format, LALA) (antibody, V domains shown)", "VH": "EVQLVESGGSLVKPGGSLRLSCAASGFTFSNYNMNWVRQAPGKGLEWISNIYGSSRYIYYADFVKGRFTISRDNAKNSLYLQMNSLRAEDTAVYYCVRSYYGGMDVWGRGTLVTVSS", "VL": "QSVLTQPASVSGSPGQSITISCAGTSSDVGGYYSVSWYQQHPGKAPKLMIYYDSNRPSGVSNRFSGSKSGNTASLTISGLQAEDEADYYCSSYTGYSTRVFGGGTKLEIK"}},
  "test_in_all_cases": "SPR",
  "key": {"[1]": {"target": "recombinant cynomolgus galectin-3 (cynomolgus)"}, "[2]": {"target": "T1, recombinant rat galectin-3 (rat, UniProt P08699 1-262)", "T1 chain": "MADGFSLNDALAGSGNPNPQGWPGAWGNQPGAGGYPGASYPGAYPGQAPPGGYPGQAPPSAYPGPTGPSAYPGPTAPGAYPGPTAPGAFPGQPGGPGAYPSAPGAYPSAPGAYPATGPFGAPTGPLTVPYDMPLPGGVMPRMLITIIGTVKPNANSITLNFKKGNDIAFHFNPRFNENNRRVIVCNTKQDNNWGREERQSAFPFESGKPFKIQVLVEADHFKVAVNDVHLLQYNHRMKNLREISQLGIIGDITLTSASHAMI"}, "[3]": {"target": "T2, recombinant mouse galectin-3, full length, His-tagged (mGal-3-FL-His Nter) (mouse, UniProt P16110 1-264)", "T2 chain": "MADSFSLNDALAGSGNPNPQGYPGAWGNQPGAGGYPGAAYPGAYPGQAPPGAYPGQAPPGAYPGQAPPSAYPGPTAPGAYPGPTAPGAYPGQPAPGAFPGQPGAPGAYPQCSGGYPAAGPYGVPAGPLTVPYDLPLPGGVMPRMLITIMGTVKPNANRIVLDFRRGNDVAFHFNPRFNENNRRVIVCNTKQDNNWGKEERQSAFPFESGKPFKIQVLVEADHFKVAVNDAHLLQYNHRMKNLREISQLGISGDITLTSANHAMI"}},
  "data": [
    {"binder": "B1", "values": [
      {"measurement": "Kd", "setting": "[1]", "result": 11.4, "unit": "nM"},
      {"measurement": "Kd", "setting": "[2]", "result": 8.6, "unit": "nM"}
    ]},
    {"binder": "B2", "values": [
      {"measurement": "Kd", "setting": "[1]", "result": 7.1, "unit": "nM"},
      {"measurement": "Kd", "setting": "[3]", "result": 4.1, "unit": "nM"}
    ]}
  ]
}
